The results in this text go back to patent US20250263490A1 (VIB VZW, published 2025).

One assay concerns the target T1, M85E.
T1 construct: also called human CI-M6PR Dom1-3His6 M85E
T1 chain: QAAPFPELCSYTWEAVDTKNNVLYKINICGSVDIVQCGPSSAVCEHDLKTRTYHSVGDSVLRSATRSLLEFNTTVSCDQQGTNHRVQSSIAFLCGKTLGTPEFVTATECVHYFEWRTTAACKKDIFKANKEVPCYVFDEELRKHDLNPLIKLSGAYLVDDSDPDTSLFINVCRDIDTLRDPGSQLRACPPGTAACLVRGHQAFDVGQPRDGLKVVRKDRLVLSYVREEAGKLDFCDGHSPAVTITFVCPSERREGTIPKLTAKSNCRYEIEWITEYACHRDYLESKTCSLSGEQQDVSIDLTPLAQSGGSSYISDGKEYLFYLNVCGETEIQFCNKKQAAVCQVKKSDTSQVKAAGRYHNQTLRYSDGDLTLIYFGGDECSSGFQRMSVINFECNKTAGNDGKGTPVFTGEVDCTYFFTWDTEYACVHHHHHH
Description: ELISA on coated antigen (100 ng), anti-VHH-HRP, A450. On the procedure:
(§1) To determine the effect of site-directed mutations, an ELISA was performed. To this end, 100 ng of each successfully purified mutant was coated per well on Nunc Maxisorp plates in 50 mM MES, 150 mM NaCl, pH 6.5 buffer overnight at 4° C. […] Coating-only controls were included for background correction. […] Reactions were stopped after five minutes using a 2N H₂SO₄ solution and plates were read at 450 nm, with a 655 nm background correction. Data were analyzed using the GraphPad Prism 9 software.

The target of another assay is T2, D87L.
T2 construct: also called human CI-M6PR Dom1-3His6 D87L
T2 chain: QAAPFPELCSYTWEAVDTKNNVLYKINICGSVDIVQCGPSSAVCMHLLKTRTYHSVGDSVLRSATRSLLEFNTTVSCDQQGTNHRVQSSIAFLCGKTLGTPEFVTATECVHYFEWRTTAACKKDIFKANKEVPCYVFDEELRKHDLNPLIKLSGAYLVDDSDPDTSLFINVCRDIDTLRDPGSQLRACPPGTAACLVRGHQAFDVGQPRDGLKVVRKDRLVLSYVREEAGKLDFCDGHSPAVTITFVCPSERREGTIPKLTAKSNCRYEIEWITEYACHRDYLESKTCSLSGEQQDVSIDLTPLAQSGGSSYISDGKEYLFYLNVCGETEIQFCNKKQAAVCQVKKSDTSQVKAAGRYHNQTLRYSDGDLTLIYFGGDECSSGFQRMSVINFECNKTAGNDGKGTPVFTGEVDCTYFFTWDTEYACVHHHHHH
Described as above. Here is the method:
as §1

The target of another assay is T3, F457E.
T3 construct: also called human CI-M6PR Dom1-3His6 F457E
T3 chain: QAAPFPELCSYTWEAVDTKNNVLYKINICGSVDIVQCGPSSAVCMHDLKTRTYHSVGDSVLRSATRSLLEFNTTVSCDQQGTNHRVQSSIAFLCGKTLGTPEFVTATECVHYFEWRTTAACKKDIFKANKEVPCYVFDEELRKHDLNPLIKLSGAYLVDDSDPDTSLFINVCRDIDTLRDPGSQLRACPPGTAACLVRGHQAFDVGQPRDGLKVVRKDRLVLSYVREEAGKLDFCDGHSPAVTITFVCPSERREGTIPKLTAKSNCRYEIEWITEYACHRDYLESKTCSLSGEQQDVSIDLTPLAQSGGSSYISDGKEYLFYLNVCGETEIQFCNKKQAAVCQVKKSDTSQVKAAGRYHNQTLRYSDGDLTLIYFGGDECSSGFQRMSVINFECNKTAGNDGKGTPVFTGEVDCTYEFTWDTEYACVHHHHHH
Described as above. Here is the method:
as §1

Assay [1] concerns the target T4, human cation-independent mannose-6-phosphate receptor, native, on cells (human, UniProt P11717 41-2491).
T4 construct: whole, on cells; also called native CI-M6PR; cell-surface hCI-M6PR
Put plainly: flow cytometry, FLAG3-His6 VHH on HEK293T cells. An excerpt: (§2) Synthetic DNA fragments encoding VHHs were ordered (IDT, Leuven, Belgium) and subcloned into an E. coli expression vector under control of an IPTG-inducible lac promoter, in frame with N-terminal PelB signal peptide (which directs the recombinant proteins to the periplasmic compartment) and C-terminal FLAG3 and His6 tags. […] VHH proteins were purified from these clones by means of IMAC chromatography followed by desalting according to well established procedures¹⁰⁶. Cells used herein were recovered using cell dissociation non-enzymatic solution (Sigma Aldrich, cat. #C5914-100ML) and resuspended to a final concentration of 1,000,000 cells/mL in FACS buffer. Cells were incubated with different concentrations of purified FLAG3-tagged VHHs for 30 minutes on ice with shaking, followed by washing and incubation with mouse M2 anti-Flag mAb (Sigma Aldrich, cat. #F-1804) in FACS buffer for 30 min on ice with shaking, followed again by washing. […] Flow cytometry and analysis were done on an Attune NxT Flow Cytometer (Thermo Fisher Scientific).
(§3) Moreover, cross-reactivity to mouse CI-M6PR was analyzed, in view of the amino acid homology between mouse and human being overall about 80% identity, but for domain 1-3 of CI-M6PR just about 75% identity.

Assay [2] addresses T5, mouse cation-independent mannose-6-phosphate receptor on cells (mouse, UniProt Q07113 36-2483).
T5 construct: whole, on cells; also called mouse CI-M6PR of bEND3 cells; mCI-M6PR
Description: flow cytometry, FLAG3-His6 VHH on mouse bEND3 cells.
Text: as §2, §3

T5 sequence (Q07113 36-2483): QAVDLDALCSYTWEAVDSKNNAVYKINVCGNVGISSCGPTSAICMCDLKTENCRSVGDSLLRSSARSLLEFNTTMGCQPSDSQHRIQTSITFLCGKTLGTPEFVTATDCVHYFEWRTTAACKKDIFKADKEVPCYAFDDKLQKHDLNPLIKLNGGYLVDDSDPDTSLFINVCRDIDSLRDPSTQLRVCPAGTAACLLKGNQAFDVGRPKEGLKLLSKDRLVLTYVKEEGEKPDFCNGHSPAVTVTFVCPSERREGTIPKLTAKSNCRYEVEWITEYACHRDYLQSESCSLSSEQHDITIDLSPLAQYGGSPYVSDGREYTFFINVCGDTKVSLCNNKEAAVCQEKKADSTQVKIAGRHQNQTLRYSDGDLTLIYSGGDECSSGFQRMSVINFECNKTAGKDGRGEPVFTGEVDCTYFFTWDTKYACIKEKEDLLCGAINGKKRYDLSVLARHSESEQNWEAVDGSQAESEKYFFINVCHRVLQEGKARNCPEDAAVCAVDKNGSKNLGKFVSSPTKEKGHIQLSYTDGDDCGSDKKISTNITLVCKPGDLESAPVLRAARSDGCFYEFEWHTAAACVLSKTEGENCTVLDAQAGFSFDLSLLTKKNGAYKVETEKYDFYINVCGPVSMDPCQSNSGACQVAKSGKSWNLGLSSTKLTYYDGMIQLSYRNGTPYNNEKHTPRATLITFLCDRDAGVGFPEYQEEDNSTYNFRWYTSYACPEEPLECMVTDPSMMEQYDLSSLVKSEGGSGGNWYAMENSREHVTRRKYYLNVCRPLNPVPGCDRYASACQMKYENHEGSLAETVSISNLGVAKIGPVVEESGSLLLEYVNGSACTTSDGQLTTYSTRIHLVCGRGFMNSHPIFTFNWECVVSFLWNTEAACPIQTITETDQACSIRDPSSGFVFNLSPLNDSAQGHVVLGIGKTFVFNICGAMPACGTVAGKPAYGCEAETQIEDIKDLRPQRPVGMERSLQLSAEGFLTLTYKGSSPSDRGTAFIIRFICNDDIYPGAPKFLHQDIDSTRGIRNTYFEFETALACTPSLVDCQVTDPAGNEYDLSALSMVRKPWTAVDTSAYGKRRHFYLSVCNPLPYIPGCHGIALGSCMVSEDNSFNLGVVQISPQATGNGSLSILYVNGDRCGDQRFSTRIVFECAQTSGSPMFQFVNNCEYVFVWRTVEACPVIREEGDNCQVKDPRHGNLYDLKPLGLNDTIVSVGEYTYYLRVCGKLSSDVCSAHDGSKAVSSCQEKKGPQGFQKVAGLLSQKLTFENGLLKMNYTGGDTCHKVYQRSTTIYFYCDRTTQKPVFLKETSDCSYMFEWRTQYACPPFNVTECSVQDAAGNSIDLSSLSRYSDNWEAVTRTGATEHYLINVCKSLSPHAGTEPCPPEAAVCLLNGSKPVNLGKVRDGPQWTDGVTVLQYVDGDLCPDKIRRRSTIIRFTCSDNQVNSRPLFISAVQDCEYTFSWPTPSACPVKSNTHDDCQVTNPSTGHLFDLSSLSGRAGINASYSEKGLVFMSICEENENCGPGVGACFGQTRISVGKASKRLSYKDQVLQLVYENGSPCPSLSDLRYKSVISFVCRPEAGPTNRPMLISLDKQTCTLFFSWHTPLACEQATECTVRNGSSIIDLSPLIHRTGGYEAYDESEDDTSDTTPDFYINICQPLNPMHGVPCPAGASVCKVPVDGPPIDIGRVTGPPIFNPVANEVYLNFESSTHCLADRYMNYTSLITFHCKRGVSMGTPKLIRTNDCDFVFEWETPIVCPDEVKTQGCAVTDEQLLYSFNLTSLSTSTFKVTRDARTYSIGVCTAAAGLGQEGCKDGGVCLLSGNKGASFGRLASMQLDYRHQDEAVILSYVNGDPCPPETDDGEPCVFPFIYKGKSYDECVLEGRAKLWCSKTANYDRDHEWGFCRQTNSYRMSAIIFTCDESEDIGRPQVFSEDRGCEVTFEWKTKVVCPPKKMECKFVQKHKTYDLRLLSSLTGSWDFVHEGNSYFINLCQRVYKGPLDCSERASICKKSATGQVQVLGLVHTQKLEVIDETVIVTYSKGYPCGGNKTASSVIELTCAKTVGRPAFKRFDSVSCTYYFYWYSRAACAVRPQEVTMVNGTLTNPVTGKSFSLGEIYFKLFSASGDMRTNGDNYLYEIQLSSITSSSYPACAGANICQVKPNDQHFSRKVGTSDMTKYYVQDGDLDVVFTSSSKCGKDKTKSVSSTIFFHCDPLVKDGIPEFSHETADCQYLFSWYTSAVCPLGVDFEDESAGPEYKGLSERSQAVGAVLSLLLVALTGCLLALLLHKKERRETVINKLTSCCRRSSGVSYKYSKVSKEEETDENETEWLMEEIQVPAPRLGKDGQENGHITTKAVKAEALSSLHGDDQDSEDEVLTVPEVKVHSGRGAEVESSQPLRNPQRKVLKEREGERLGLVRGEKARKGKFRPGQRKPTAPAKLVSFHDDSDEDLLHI

B1: anti-CI-M6PR VHH5 (VHH)
VHH: QVQLQESGGGLVQAGGSLKLSCAAAGRTFSRLAMGWFRQAPGKEREFVAAISENGDSIHYSDSVKGRFAVSRDNAKNTVYLQMNSLKPEDTAIYYCAADRAAYYCSGSGCYPSRAPAAASYDYWGQGTQVTVSS
notes: His6-tagged; made in Pichia pastoris, later also in E. coli WK6
For the molecule B1, the “EC50 (read off the curve)” value with M85E and in the assay with D87L was approximately 2 nM each time.

B2: anti-CI-M6PR VHH 1H11 (VHH)
VHH: QVQLQESGGGLVQPGGSLRLSCAASGIIFSDNRMDWYRQAPGKQREWVATLASYGWKTYADSVKDRFTISRDNAKNTVNLYMNSLQPEDTAVYYCNSGQYWGQGTQVTVSS
notes: made in E. coli WK6, His-tag purified
B2: the “EC50 (read off the curve)” value with F457E is approximately 0.4 nM.

B3: anti-CI-M6PR VHH7 (VHH)
VHH: QVQLQESGGGLVQPGGSLRLSCAASGIIFSDNRMDWYRQAPGKQREWVATLASYGWKTYADSVKGRFTISRDNTKNTVYLRMNSLKPEDTAVYYCKASSPVLNDIWGQGTQVTVSS
notes: His6-tagged (Pichia pastoris)
Turning to B3, the values for the EC50 in assay [1] and in assay [2] were 20 nM and approximately 8.5 nM, respectively.

B4: anti-CI-M6PR VHH8 (VHH)
VHH: QVQLQESGGGLVQAGGSLRLSCEASGRTFNTYNWGWFRQAPGKEREFVAAIRWSSSKTSYADSVKGRFTISRDNAKNTIYLQMNSLKPEDTAVYYCAASIVDFTTNPSHFGSWGQGTQVTVSS
notes: His6-tagged (Pichia pastoris)
In assay [1], B4 showed an EC50 of 0.8 nM. Moreover, the “EC50 (read off the curve)” value with M85E is approximately 3 nM; with D87L, approximately 4 nM; with F457E, approximately 10 nM.
